Laboratory results reported in US20140087995A1 (published 2014).
Numbered stars: 1 amine (or outer) side, 2 acyl side, 3 side chain; on linkers, the order of the positions; unused ones are H or OH. Bridge positions count the residues as written; N and C are the ends. Side chains are listed from the residue outwards. Ends that are not written are not given here. * marks the point of attachment. C20 diacid = O=C(O)CCCCCCCCCCCCCCCCCCC(=O)*; γGlu = O=C(O)[C@H](CCC(=O)[*:2])N[*:1]; AEEA = NCCOCCOCC(=O)O

T1: human calcitonin receptor (human, UniProt P30988 25-474)
T1 construct: whole, on cells; also called hCTR; hCT
T1 sequence (looked up): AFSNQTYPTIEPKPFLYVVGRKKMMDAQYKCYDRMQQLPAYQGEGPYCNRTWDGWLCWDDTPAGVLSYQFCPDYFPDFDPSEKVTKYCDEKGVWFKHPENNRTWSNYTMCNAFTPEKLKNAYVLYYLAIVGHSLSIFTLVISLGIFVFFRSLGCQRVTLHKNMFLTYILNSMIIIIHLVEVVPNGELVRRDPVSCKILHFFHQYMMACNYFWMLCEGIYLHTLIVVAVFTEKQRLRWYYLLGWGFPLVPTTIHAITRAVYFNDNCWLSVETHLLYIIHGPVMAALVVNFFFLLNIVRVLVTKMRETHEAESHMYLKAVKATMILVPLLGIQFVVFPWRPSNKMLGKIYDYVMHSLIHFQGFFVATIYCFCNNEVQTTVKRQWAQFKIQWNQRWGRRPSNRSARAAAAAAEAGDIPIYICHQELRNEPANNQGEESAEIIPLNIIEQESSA

T2: rat amylin receptor (rat calcitonin receptor + rat RAMP 3) (rat, UniProt P32214 25-516; Q9JJ73 23-147)
T2 construct: whole, on cells; also called rAmylin-R; rat amylin 3(a) receptor
T2 sequence (looked up) 1: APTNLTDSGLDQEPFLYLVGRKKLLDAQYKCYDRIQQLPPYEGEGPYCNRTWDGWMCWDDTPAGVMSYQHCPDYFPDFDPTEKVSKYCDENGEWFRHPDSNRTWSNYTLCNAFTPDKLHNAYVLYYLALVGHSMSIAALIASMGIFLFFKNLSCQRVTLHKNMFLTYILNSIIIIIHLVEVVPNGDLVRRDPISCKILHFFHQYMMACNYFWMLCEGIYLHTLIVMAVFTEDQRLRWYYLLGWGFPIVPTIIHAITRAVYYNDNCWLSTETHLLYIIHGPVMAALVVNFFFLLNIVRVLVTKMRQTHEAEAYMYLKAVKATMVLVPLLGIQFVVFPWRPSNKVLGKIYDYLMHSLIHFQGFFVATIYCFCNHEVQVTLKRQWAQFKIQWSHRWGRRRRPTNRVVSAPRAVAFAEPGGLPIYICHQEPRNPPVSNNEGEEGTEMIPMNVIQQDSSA
T2 sequence (looked up) 2: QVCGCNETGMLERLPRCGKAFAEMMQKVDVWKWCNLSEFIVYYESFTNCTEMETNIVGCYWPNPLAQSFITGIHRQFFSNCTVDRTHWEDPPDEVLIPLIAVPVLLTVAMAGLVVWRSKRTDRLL

T3: rat calcitonin receptor (rat, UniProt P32214 25-516)
T3 construct: whole, on cells; also called rCTR; rat calcitonin (a) receptor
T3 sequence (looked up): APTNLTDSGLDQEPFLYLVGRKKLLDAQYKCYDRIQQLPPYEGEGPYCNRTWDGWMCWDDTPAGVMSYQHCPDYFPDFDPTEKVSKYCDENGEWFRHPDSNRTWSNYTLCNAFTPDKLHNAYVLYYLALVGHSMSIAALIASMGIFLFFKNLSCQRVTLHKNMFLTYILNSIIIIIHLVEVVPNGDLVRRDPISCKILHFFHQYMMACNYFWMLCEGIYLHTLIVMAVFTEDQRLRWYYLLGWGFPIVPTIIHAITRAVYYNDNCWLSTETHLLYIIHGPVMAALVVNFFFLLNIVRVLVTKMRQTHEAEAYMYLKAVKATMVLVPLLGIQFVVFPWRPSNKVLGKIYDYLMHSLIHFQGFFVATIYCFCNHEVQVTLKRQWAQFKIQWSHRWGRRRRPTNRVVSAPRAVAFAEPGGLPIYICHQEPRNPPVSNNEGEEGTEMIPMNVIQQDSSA


How the values were obtained:
[1] = target: T1, human calcitonin receptor; assay: ratio of binding IC50s: human calcitonin receptor over human amylin receptor (reference)
Procedure, shortened: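 IC₅₀ values were derived by one-site competition analysis of SPA counts. Cell membranes (35 ng/μL) with SPA beads were incubated with test compounds for 120 min at 25° C in Hepes buffer, pH 7.4, containing CaCl2, MgCl₂, OA and Tween20.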

[2] = target: T2, rat amylin receptor (rat calcitonin …); assay: SPA competition with 125I-rat amylin, membranes of BHK cells with rat calcitonin receptor + rat RAMP3 (Assay VI)
rat calcitonin receptor [3] = target: T3, rat calcitonin receptor; assay: ratio of binding IC50s: rat calcitonin receptor over rat amylin receptor (reference)
rat calcitonin receptor [4] = target: T3, rat calcitonin receptor; assay: SPA competition with 125I-calcitonin, membranes of BHK cells with rat calcitonin receptor (Assay VIII)

Row | Binder | Ratio hCT/hAmylin binding [1] | IC50 [2] [nM] | Ratio rCT/rAmylin binding (rat calcitonin receptor [3]) | IC50 (rat calcitonin receptor [4]) [nM]
1 | K([γGlu-C20 diacid])CNTATCATQRLANFLRHSSPNFGAIPSSTNVGRNTY-NH2 (disulfide 2-7; N-terminus assumed; SMILES CC[C@H](C)[C@H](NC(=O)[C@H](C)NC(=O)CNC(=O)[C@H](Cc1ccccc1)NC(=O)[C@H](CC(N)=O)NC(=O)[C@@H]1CCCN1C(=O)[C@H](CO)NC(=O)[C@H](CO)NC(=O)[C@H](Cc1c[nH]cn1)NC(=O)[C@H](CCCNC(=N)N)NC(=O)[C@H](CC(C)C)NC(=O)[C@H](Cc1ccccc1)NC(=O)[C@H](CC(N)=O)NC(=O)[C@H](C)NC(=O)[C@H](CC(C)C)NC(=O)[C@H](CCCNC(=N)N)NC(=O)[C@H](CCC(N)=O)NC(=O)[C@@H](NC(=O)[C@H](C)NC(=O)[C@@H]1CSSC[C@H](NC(=O)[C@@H](N)CCCCNC(=O)CC[C@H](NC(=O)CCCCCCCCCCCCCCCCCCC(=O)O)C(=O)O)C(=O)N[C@@H](CC(N)=O)C(=O)N[C@@H]([C@@H](C)O)C(=O)N[C@@H](C)C(=O)N[C@@H]([C@@H](C)O)C(=O)N1)[C@@H](C)O)C(=O)N1CCC[C@H]1C(=O)N[C@@H](CO)C(=O)N[C@@H](CO)C(=O)N[C@H](C(=O)N[C@@H](CC(N)=O)C(=O)N[C@H](C(=O)NCC(=O)N[C@@H](CCCNC(=N)N)C(=O)N[C@@H](CC(N)=O)C(=O)N[C@H](C(=O)N[C@@H](Cc1ccc(O)cc1)C(N)=O)[C@@H](C)O)C(C)C)[C@@H](C)O, synthetic analogue of human amylin; also called compound 79) [N^ε1-[(4S)-4-carboxy-4-(19-carboxynonadecanoylamino)butanoyl]-[Arg17,Pro21,Pro27,Arg34]-h-amylin] | 46.1 | 1.65 | 21.5 | 35.5
2 | K([γGlu-C20 diacid])CNTATCATQRLARFLRHSSPNFGAIPSSTPVGSNTY-NH2 (disulfide 2-7; N-terminus assumed; SMILES CC[C@H](C)[C@H](NC(=O)[C@H](C)NC(=O)CNC(=O)[C@H](Cc1ccccc1)NC(=O)[C@H](CC(N)=O)NC(=O)[C@@H]1CCCN1C(=O)[C@H](CO)NC(=O)[C@H](CO)NC(=O)[C@H](Cc1c[nH]cn1)NC(=O)[C@H](CCCNC(=N)N)NC(=O)[C@H](CC(C)C)NC(=O)[C@H](Cc1ccccc1)NC(=O)[C@H](CCCNC(=N)N)NC(=O)[C@H](C)NC(=O)[C@H](CC(C)C)NC(=O)[C@H](CCCNC(=N)N)NC(=O)[C@H](CCC(N)=O)NC(=O)[C@@H](NC(=O)[C@H](C)NC(=O)[C@@H]1CSSC[C@H](NC(=O)[C@@H](N)CCCCNC(=O)CC[C@H](NC(=O)CCCCCCCCCCCCCCCCCCC(=O)O)C(=O)O)C(=O)N[C@@H](CC(N)=O)C(=O)N[C@@H]([C@@H](C)O)C(=O)N[C@@H](C)C(=O)N[C@@H]([C@@H](C)O)C(=O)N1)[C@@H](C)O)C(=O)N1CCC[C@H]1C(=O)N[C@@H](CO)C(=O)N[C@@H](CO)C(=O)N[C@H](C(=O)N1CCC[C@H]1C(=O)N[C@H](C(=O)NCC(=O)N[C@@H](CO)C(=O)N[C@@H](CC(N)=O)C(=O)N[C@H](C(=O)N[C@@H](Cc1ccc(O)cc1)C(N)=O)[C@@H](C)O)C(C)C)[C@@H](C)O, synthetic analogue of human amylin; also called compound 63) | 157 | 3.48 | 35.6 | 124
3 | K([γGlu-C20 diacid])CNTATCATQRLARFLRHSSPNFGAIPSSTNVGSNTY-NH2 (disulfide 2-7; N-terminus assumed; SMILES CC[C@H](C)[C@H](NC(=O)[C@H](C)NC(=O)CNC(=O)[C@H](Cc1ccccc1)NC(=O)[C@H](CC(N)=O)NC(=O)[C@@H]1CCCN1C(=O)[C@H](CO)NC(=O)[C@H](CO)NC(=O)[C@H](Cc1c[nH]cn1)NC(=O)[C@H](CCCNC(=N)N)NC(=O)[C@H](CC(C)C)NC(=O)[C@H](Cc1ccccc1)NC(=O)[C@H](CCCNC(=N)N)NC(=O)[C@H](C)NC(=O)[C@H](CC(C)C)NC(=O)[C@H](CCCNC(=N)N)NC(=O)[C@H](CCC(N)=O)NC(=O)[C@@H](NC(=O)[C@H](C)NC(=O)[C@@H]1CSSC[C@H](NC(=O)[C@@H](N)CCCCNC(=O)CC[C@H](NC(=O)CCCCCCCCCCCCCCCCCCC(=O)O)C(=O)O)C(=O)N[C@@H](CC(N)=O)C(=O)N[C@@H]([C@@H](C)O)C(=O)N[C@@H](C)C(=O)N[C@@H]([C@@H](C)O)C(=O)N1)[C@@H](C)O)C(=O)N1CCC[C@H]1C(=O)N[C@@H](CO)C(=O)N[C@@H](CO)C(=O)N[C@H](C(=O)N[C@@H](CC(N)=O)C(=O)N[C@H](C(=O)NCC(=O)N[C@@H](CO)C(=O)N[C@@H](CC(N)=O)C(=O)N[C@H](C(=O)N[C@@H](Cc1ccc(O)cc1)C(N)=O)[C@@H](C)O)C(C)C)[C@@H](C)O, synthetic analogue of human amylin; also called compound 83) [N^ε1-[(4S)-4-carboxy-4-(19-carboxynonadecanoylamino)butanoyl]-[Arg14,Arg17,Pro21,Pro27]-h-amylin] | 146 | 2.83 | 49.7 | 140

The remaining binders from weak to strong by IC50 [2], led by results:

Row | Ratio hCT/hAmylin binding [1] | IC50 [2] [nM] | Ratio rCT/rAmylin binding (rat calcitonin receptor [3]) | IC50 (rat calcitonin receptor [4]) [nM] | Binder
4 | 91.4 | 4.03 | 110 | 442 | K([AEEA-γGlu-C20 diacid])CNTATCATQRLATFLRHSSPNFGAIPSSTPVGSNTY-NH2 (disulfide 2-7; N-terminus assumed; SMILES CC[C@H](C)[C@H](NC(=O)[C@H](C)NC(=O)CNC(=O)[C@H](Cc1ccccc1)NC(=O)[C@H](CC(N)=O)NC(=O)[C@@H]1CCCN1C(=O)[C@H](CO)NC(=O)[C@H](CO)NC(=O)[C@H](Cc1c[nH]cn1)NC(=O)[C@H](CCCNC(=N)N)NC(=O)[C@H](CC(C)C)NC(=O)[C@H](Cc1ccccc1)NC(=O)[C@@H](NC(=O)[C@H](C)NC(=O)[C@H](CC(C)C)NC(=O)[C@H](CCCNC(=N)N)NC(=O)[C@H](CCC(N)=O)NC(=O)[C@@H](NC(=O)[C@H](C)NC(=O)[C@@H]1CSSC[C@H](NC(=O)[C@@H](N)CCCCNC(=O)COCCOCCNC(=O)CC[C@H](NC(=O)CCCCCCCCCCCCCCCCCCC(=O)O)C(=O)O)C(=O)N[C@@H](CC(N)=O)C(=O)N[C@@H]([C@@H](C)O)C(=O)N[C@@H](C)C(=O)N[C@@H]([C@@H](C)O)C(=O)N1)[C@@H](C)O)[C@@H](C)O)C(=O)N1CCC[C@H]1C(=O)N[C@@H](CO)C(=O)N[C@@H](CO)C(=O)N[C@H](C(=O)N1CCC[C@H]1C(=O)N[C@H](C(=O)NCC(=O)N[C@@H](CO)C(=O)N[C@@H](CC(N)=O)C(=O)N[C@H](C(=O)N[C@@H](Cc1ccc(O)cc1)C(N)=O)[C@@H](C)O)C(C)C)[C@@H](C)O, synthetic analogue of human amylin; also called compound 75)
5 | 82.4 | 1.16 | 93.2 | 108 | K([γGlu-C20 diacid])CNTATCATQRLARFLRHSSPNFGAIPSSTNVGPNTY-NH2 (disulfide 2-7; N-terminus assumed; SMILES CC[C@H](C)[C@H](NC(=O)[C@H](C)NC(=O)CNC(=O)[C@H](Cc1ccccc1)NC(=O)[C@H](CC(N)=O)NC(=O)[C@@H]1CCCN1C(=O)[C@H](CO)NC(=O)[C@H](CO)NC(=O)[C@H](Cc1c[nH]cn1)NC(=O)[C@H](CCCNC(=N)N)NC(=O)[C@H](CC(C)C)NC(=O)[C@H](Cc1ccccc1)NC(=O)[C@H](CCCNC(=N)N)NC(=O)[C@H](C)NC(=O)[C@H](CC(C)C)NC(=O)[C@H](CCCNC(=N)N)NC(=O)[C@H](CCC(N)=O)NC(=O)[C@@H](NC(=O)[C@H](C)NC(=O)[C@@H]1CSSC[C@H](NC(=O)[C@@H](N)CCCCNC(=O)CC[C@H](NC(=O)CCCCCCCCCCCCCCCCCCC(=O)O)C(=O)O)C(=O)N[C@@H](CC(N)=O)C(=O)N[C@@H]([C@@H](C)O)C(=O)N[C@@H](C)C(=O)N[C@@H]([C@@H](C)O)C(=O)N1)[C@@H](C)O)C(=O)N1CCC[C@H]1C(=O)N[C@@H](CO)C(=O)N[C@@H](CO)C(=O)N[C@H](C(=O)N[C@@H](CC(N)=O)C(=O)N[C@H](C(=O)NCC(=O)N1CCC[C@H]1C(=O)N[C@@H](CC(N)=O)C(=O)N[C@H](C(=O)N[C@@H](Cc1ccc(O)cc1)C(N)=O)[C@@H](C)O)C(C)C)[C@@H](C)O, synthetic analogue of human amylin; also called compound 65)
